Results on one molecule are retold here after publication PMC7835958 (2021).

The target in this test is T1, LEDGF/p75 IBD (Homo sapiens, UniProt O75475).
T1 chain: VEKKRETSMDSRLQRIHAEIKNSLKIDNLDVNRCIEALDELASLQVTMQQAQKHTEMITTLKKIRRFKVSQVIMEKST
As to the kind of experiment: NMR.

The Kd is the free concentration of one partner at which half of the binding sites on the other are occupied at equilibrium, for simple one-to-one binding. High values mean lower affinity, low ones higher affinity.

B1: MLL 123-160 (peptide)
chain: GTNLRRFRAVFGESGGGGGSGEDEQFLGFGSDEEVRVR
In turn, B1 showed a Kd of 64 µM.
